The values that follow come from PMC8769934 (Cell Reports, 2022).

One assay deals with dissociated S1 protomer (SARS-CoV-2, Wuhan-Hu-1, stabilised). The assay is described as follows: cryo-EM structure.
Assay [1] deals with recombinant S1 domain containing B.1.1.7 mutations (SARS-CoV-2 B.1.1.7 (Alpha), strain). As to the kind of experiment: BLI. Background: BLI is a label-free optical method that tracks binding on a fibre tip over time.

B1: N-612-004 Fab (Fab, V domains shown)
VH: EVQLVESGGGLVQPGGSLRLSCAASGFTFSSYYMHWVRQAPGKGLEWVSAISGSGGYTYYADSVKGRFTISRDNSKNTLYLQMNSLRAEDTAVYYCARDRDHAYDWGFDVWGQGTLVTVSS
VL: DIQMTQSPSSLSASVGDRVTITCQASQDISNYLNWYQQKPGKAPKLLIYDASNLETGVPSRFSGSGSGTDFTFTISSLQPEDIATYYCQQWADWPLTFGQGTKVEIK
With B1, the binding result with dissociated S1 protomer is on record as “binds”.

B2: N-612-004 (IgG1) (antibody, V domains shown)
VH: B1 VH
VL: B1 VL
Turning to B2, the “fold reduction of binding affinity against S1” value in assay [1] is ~3 fold.
